Results from publication PMC10200060 (2023).

B1: lactoferrin-glycyrrhizin conjugate Lf-GL (1:15) (other)
chain: GRRRSVQWCAVSQPEATKCFQWQRNMRKVRGPPVSCIKRDSPIQCIQAIAENRADAVTLDGGFIYEAGLAPYKLRPVAAEVYGTERQPRTHYYAVAVVKKGGSFQLNELQGLKSCHTGLRRTAGWNVPIGTLRPFLNWTGPPEPIEAAVARFFSASCVPGADKGQFPNLCRLCAGTGENKCAFSSQEPYFSYSGAFKCLRDGAGDVAFIRESTVFEDLSDEAERDEYELLCPDNTRKPVDKFKDCHLARVPSHAVVARSVNGKEDAIWNLLRQAQEKFGKDKSPKFQLFGSPSGQKDLLFKDSAIGFSRVPPRIDSGLYLGSGYFTAIQNLRKSEEEVAARRARVVWCAVGEQELRKCNQWSGLSEGSVTCSSASTTEDCIALVLKGEADAMSLDGGYVYTAGKCGLVPVLAENYKSQQSSDPDPNCVDRPVEGYLAVAVVRRSDTSLTWNSVKGKKSCHTAVDRTAGWNIPMGLLFNQTGSCKFDEYFSQSCAPGSDPRSNLCALCIGDEQGENKCVPNSNERYYGYTGAFRCLAENAGDVAFVKDVTVLQNTDGNNNEAWAKDLKLADFALLCLDGKRKPVTEARSCHLAMAPNHAVVSRMDKVERLKQVLLHQQAKFGRNGSDCPDKFCLFQSETKNLLFNDNTECLARLHGKTTYEKYLGPQYVAGITNLKKCSTSPLLEACEFLRK
modifications: glycyrrhizin (oxidised with sodium periodate) coupled to amines of Lf by Schiff-base reaction and reduction with NaBH3CN; ratio Lf:GL 1:15 as printed; modified residues not identified
B2: lactoferrin-glycyrrhizin conjugate Lf-GL (1:10) (other)
chain: GRRRSVQWCAVSQPEATKCFQWQRNMRKVRGPPVSCIKRDSPIQCIQAIAENRADAVTLDGGFIYEAGLAPYKLRPVAAEVYGTERQPRTHYYAVAVVKKGGSFQLNELQGLKSCHTGLRRTAGWNVPIGTLRPFLNWTGPPEPIEAAVARFFSASCVPGADKGQFPNLCRLCAGTGENKCAFSSQEPYFSYSGAFKCLRDGAGDVAFIRESTVFEDLSDEAERDEYELLCPDNTRKPVDKFKDCHLARVPSHAVVARSVNGKEDAIWNLLRQAQEKFGKDKSPKFQLFGSPSGQKDLLFKDSAIGFSRVPPRIDSGLYLGSGYFTAIQNLRKSEEEVAARRARVVWCAVGEQELRKCNQWSGLSEGSVTCSSASTTEDCIALVLKGEADAMSLDGGYVYTAGKCGLVPVLAENYKSQQSSDPDPNCVDRPVEGYLAVAVVRRSDTSLTWNSVKGKKSCHTAVDRTAGWNIPMGLLFNQTGSCKFDEYFSQSCAPGSDPRSNLCALCIGDEQGENKCVPNSNERYYGYTGAFRCLAENAGDVAFVKDVTVLQNTDGNNNEAWAKDLKLADFALLCLDGKRKPVTEARSCHLAMAPNHAVVSRMDKVERLKQVLLHQQAKFGRNGSDCPDKFCLFQSETKNLLFNDNTECLARLHGKTTYEKYLGPQYVAGITNLKKCSTSPLLEACEFLRK
modifications: glycyrrhizin (oxidised with sodium periodate) coupled to amines of Lf by Schiff-base reaction and reduction with NaBH3CN; binding ratio Lf:GL 1:10 (1:9.6 by MALDI-TOF, 86,727.3 Da); modified residues not identified
B3: lactoferrin-glycyrrhizin conjugate Lf-GL (1:4) (other)
chain: GRRRSVQWCAVSQPEATKCFQWQRNMRKVRGPPVSCIKRDSPIQCIQAIAENRADAVTLDGGFIYEAGLAPYKLRPVAAEVYGTERQPRTHYYAVAVVKKGGSFQLNELQGLKSCHTGLRRTAGWNVPIGTLRPFLNWTGPPEPIEAAVARFFSASCVPGADKGQFPNLCRLCAGTGENKCAFSSQEPYFSYSGAFKCLRDGAGDVAFIRESTVFEDLSDEAERDEYELLCPDNTRKPVDKFKDCHLARVPSHAVVARSVNGKEDAIWNLLRQAQEKFGKDKSPKFQLFGSPSGQKDLLFKDSAIGFSRVPPRIDSGLYLGSGYFTAIQNLRKSEEEVAARRARVVWCAVGEQELRKCNQWSGLSEGSVTCSSASTTEDCIALVLKGEADAMSLDGGYVYTAGKCGLVPVLAENYKSQQSSDPDPNCVDRPVEGYLAVAVVRRSDTSLTWNSVKGKKSCHTAVDRTAGWNIPMGLLFNQTGSCKFDEYFSQSCAPGSDPRSNLCALCIGDEQGENKCVPNSNERYYGYTGAFRCLAENAGDVAFVKDVTVLQNTDGNNNEAWAKDLKLADFALLCLDGKRKPVTEARSCHLAMAPNHAVVSRMDKVERLKQVLLHQQAKFGRNGSDCPDKFCLFQSETKNLLFNDNTECLARLHGKTTYEKYLGPQYVAGITNLKKCSTSPLLEACEFLRK
modifications: glycyrrhizin (oxidised with sodium periodate) coupled to amines of Lf by Schiff-base reaction and reduction with NaBH3CN; ratio Lf:GL 1:4 as printed; modified residues not identified
B4: lactoferrin human (Lf) (natural protein)
chain: GRRRSVQWCAVSQPEATKCFQWQRNMRKVRGPPVSCIKRDSPIQCIQAIAENRADAVTLDGGFIYEAGLAPYKLRPVAAEVYGTERQPRTHYYAVAVVKKGGSFQLNELQGLKSCHTGLRRTAGWNVPIGTLRPFLNWTGPPEPIEAAVARFFSASCVPGADKGQFPNLCRLCAGTGENKCAFSSQEPYFSYSGAFKCLRDGAGDVAFIRESTVFEDLSDEAERDEYELLCPDNTRKPVDKFKDCHLARVPSHAVVARSVNGKEDAIWNLLRQAQEKFGKDKSPKFQLFGSPSGQKDLLFKDSAIGFSRVPPRIDSGLYLGSGYFTAIQNLRKSEEEVAARRARVVWCAVGEQELRKCNQWSGLSEGSVTCSSASTTEDCIALVLKGEADAMSLDGGYVYTAGKCGLVPVLAENYKSQQSSDPDPNCVDRPVEGYLAVAVVRRSDTSLTWNSVKGKKSCHTAVDRTAGWNIPMGLLFNQTGSCKFDEYFSQSCAPGSDPRSNLCALCIGDEQGENKCVPNSNERYYGYTGAFRCLAENAGDVAFVKDVTVLQNTDGNNNEAWAKDLKLADFALLCLDGKRKPVTEARSCHLAMAPNHAVVSRMDKVERLKQVLLHQQAKFGRNGSDCPDKFCLFQSETKNLLFNDNTECLARLHGKTTYEKYLGPQYVAGITNLKKCSTSPLLEACEFLRK

Biological target: T1, human recombinant HMGB1 protein (high-mobility group box-1) (human, UniProt P09429 1-215)
T1 chain: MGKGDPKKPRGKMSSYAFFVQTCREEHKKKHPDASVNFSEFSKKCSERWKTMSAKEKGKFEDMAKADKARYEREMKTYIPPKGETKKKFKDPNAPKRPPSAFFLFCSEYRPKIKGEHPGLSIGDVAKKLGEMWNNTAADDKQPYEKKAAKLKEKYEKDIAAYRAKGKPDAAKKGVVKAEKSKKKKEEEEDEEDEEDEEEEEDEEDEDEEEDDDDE
Assay: SPR

Point of comparison: B4, koff 0.0134 s⁻¹. Against it:
- B1 — 14-fold lower, 0.000965 s⁻¹
- B2 — 43-fold lower, 0.000311 s⁻¹
- B3 — 8.5-fold lower, 0.00158 s⁻¹
